Measured values taken from paper doi:10.1101/2024.10.10.617615.

Target: SpyCatcher003
Experiment: gel shift assay of isopeptide ligation

Substance | fold change of ligation rate against Oxo (slower) | fold change of ligation rate against Oxo (faster) | fold change of ligation rate against Val^S3 (slower)
SpyTag003 Ala^S11 thioamide variant (peptide) | 38 fold |  | 
SpyTag003 Ile^S6 thioamide variant (peptide) | 5.4 fold |  | 
SpyTag003 Met^S8 thioamide variant (peptide) | > 2000 fold |  | 
SpyTag003 Val^S3 thioamide variant (peptide) |  | 1.8 fold | 
SpyTag003 Val^S3-Pro^S4 dual thioamide peptide | 1.2 fold |  | 2 fold
SpyTag003 Val^S7 thioamide variant (peptide) |  | 1.4 fold | 
SpyTag003 Val^S9 thioamide variant (peptide) | 1.6 fold |  | 
